Patent US6528295

Biological target: Protein Phosphatase Methylesterase-1 (PME-1), endogenous protein of NIH3T3 cells (mouse) (UniProt Q8BVQ5)
Assay: anti-HA co-immunoprecipitation, silver-stained 2D gel

Sequence of Protein Phosphatase Methylesterase-1 (PME-1), endogenous protein of NIH3T3 cells (mouse) (Q8BVQ5 whole entry): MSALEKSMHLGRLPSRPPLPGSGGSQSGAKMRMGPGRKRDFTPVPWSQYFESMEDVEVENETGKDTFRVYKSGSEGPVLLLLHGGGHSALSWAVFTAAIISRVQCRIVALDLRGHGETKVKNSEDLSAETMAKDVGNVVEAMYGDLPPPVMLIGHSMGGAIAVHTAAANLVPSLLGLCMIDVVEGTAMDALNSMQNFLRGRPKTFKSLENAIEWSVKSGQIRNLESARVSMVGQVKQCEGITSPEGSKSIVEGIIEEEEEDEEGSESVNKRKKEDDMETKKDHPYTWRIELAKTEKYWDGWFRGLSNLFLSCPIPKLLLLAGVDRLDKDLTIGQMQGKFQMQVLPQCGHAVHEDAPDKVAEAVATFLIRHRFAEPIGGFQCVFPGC

## HA-tagged PP2A C subunit mutant H118Q (from UniProt P67775 1-309) (enzyme)
  stoichiometry of PME-1 to the A and C subunits in the immunoprecipitate: 1
